Target: the molecule itself
Test: NMR solution structure

B1: Mycobacterium tuberculosis NmtR (apo-state, homodimer) (natural protein)
chain: GHGVEGRNRPSAPLDSQAAAQVASTLQALATPSRLMILTQLRNGPLPVTDLAEAIGMEQSAVSHQLRVLRNLGLVVGDRAGRSIVYSLYDTHVAQLLDEAIYHSEHLHLGLSDRHPSAG
binding result: binds
